Source: patent US20240026443A1 (University of Washington, published 2024)

Target: T1, DddA (intact deaminase domain of the bacterial toxin-derived double stranded DNA cytosine deaminase) (Burkholderia cenocepacia (strain H111), UniProt P0DUH5 1290-1427, limits assumed)
T1 construct: also called double stranded DNA deaminase
T1 sequence: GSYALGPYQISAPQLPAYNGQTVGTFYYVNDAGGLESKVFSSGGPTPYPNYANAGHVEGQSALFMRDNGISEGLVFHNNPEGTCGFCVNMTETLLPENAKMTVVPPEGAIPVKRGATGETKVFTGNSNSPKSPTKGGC
Experiment: X-ray crystal structure of the complex

B1: double stranded DNA deaminase A immunity (DddAI) protein (other)
chain: MYADDFDGEIEIDEVDSLVEFLSRRPAFDANNFVLTFEESGFPQLNIFAKNDIAVVYYMDIGENFVSKGNSASGGTEKFYENKLGGEVDLSKDCVVSKEQMIEAAKQFFATKQRPEQLTWSEL
notes: Expressed inside P. aeruginosa from an arabinose-inducible promoter at the Tn7 attachment site; also called DddIA; DddA cognate immunity determinant
binding result: binds
